To fix the notation:
T1: TROP2 (UniProt P09758 27-323, limits assumed)
T1 sequence (looked up): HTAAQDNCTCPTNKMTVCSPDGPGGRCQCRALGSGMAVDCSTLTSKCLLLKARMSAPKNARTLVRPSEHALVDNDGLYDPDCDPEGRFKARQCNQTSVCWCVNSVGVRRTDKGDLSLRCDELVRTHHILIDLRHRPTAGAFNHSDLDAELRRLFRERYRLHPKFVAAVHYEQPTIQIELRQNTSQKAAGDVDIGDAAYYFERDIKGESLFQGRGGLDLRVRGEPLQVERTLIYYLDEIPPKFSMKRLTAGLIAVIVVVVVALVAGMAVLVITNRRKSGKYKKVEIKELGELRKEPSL

B1: hRS7-CPT009-D4 (antibody, human IgG1, kappa, V domains shown)
VH: QVQLQQSGSELKKPGASVKVSCKASGYTFTNYGMNWVKQAPGQGLKWMGWINTYTGEPTYTDDFKGRFAFSLDTSVSTAYLQISSLKADDTAVYFCARGGFGSSYWYFDVWGQGSLVTVSS
VL: DIQLTQSPSSLSASVGDRVSITCKASQDVSIAVAWYQQKPGKAPKLLIYSASYRYTGVPDRFSGSGSGTDFTLTISSLQPEDFAVYYCQQHYITPLTFGAGTKVEIKR
modifications: linker-drug CPT009 on cysteines of reduced interchain disulfides; label D4
B2: hRS7-CL2A-SN38-D8 (antibody, human IgG1, kappa, V domains shown)
VH: QVQLQQSGSELKKPGASVKVSCKASGYTFTNYGMNWVKQAPGQGLKWMGWINTYTGEPTYTDDFKGRFAFSLDTSVSTAYLQISSLKADDTAVYFCARGGFGSSYWYFDVWGQGSLVTVSS
VL: DIQLTQSPSSLSASVGDRVSITCKASQDVSIAVAWYQQKPGKAPKLLIYSASYRYTGVPDRFSGSGSGTDFTLTISSLQPEDFAVYYCQQHYITPLTFGAGTKVEIKR
modifications: CL2A-SN38 on cysteines of reduced interchain disulfides; label D8
B3: hRS7-CPT006-D4 (antibody, human IgG1, kappa, V domains shown)
VH: QVQLQQSGSELKKPGASVKVSCKASGYTFTNYGMNWVKQAPGQGLKWMGWINTYTGEPTYTDDFKGRFAFSLDTSVSTAYLQISSLKADDTAVYFCARGGFGSSYWYFDVWGQGSLVTVSS
VL: DIQLTQSPSSLSASVGDRVSITCKASQDVSIAVAWYQQKPGKAPKLLIYSASYRYTGVPDRFSGSGSGTDFTLTISSLQPEDFAVYYCQQHYITPLTFGAGTKVEIKR
modifications: linker-drug CPT006 on cysteines of reduced interchain disulfides; label D4
B4: hRS7-SN38-D8 (antibody, human IgG1, kappa, V domains shown)
VH: QVQLQQSGSELKKPGASVKVSCKASGYTFTNYGMNWVKQAPGQGLKWMGWINTYTGEPTYTDDFKGRFAFSLDTSVSTAYLQISSLKADDTAVYFCARGGFGSSYWYFDVWGQGSLVTVSS
VL: DIQLTQSPSSLSASVGDRVSITCKASQDVSIAVAWYQQKPGKAPKLLIYSASYRYTGVPDRFSGSGSGTDFTLTISSLQPEDFAVYYCQQHYITPLTFGAGTKVEIKR
modifications: comp.5-linked SN38 on cysteines of reduced interchain disulfides; label D8
B5: hRS7-CPT004-D4 (antibody, human IgG1, kappa, V domains shown)
VH: QVQLQQSGSELKKPGASVKVSCKASGYTFTNYGMNWVKQAPGQGLKWMGWINTYTGEPTYTDDFKGRFAFSLDTSVSTAYLQISSLKADDTAVYFCARGGFGSSYWYFDVWGQGSLVTVSS
VL: DIQLTQSPSSLSASVGDRVSITCKASQDVSIAVAWYQQKPGKAPKLLIYSASYRYTGVPDRFSGSGSGTDFTLTISSLQPEDFAVYYCQQHYITPLTFGAGTKVEIKR
modifications: linker-drug CPT004 on cysteines of reduced interchain disulfides; label D4
B6: hRS7-CPT005-D4 (antibody, human IgG1, kappa, V domains shown)
VH: QVQLQQSGSELKKPGASVKVSCKASGYTFTNYGMNWVKQAPGQGLKWMGWINTYTGEPTYTDDFKGRFAFSLDTSVSTAYLQISSLKADDTAVYFCARGGFGSSYWYFDVWGQGSLVTVSS
VL: DIQLTQSPSSLSASVGDRVSITCKASQDVSIAVAWYQQKPGKAPKLLIYSASYRYTGVPDRFSGSGSGTDFTLTISSLQPEDFAVYYCQQHYITPLTFGAGTKVEIKR
modifications: linker-drug CPT005 on cysteines of reduced interchain disulfides; label D4
B7: DXD (deruxtecan)-conjugated sacituzumab (hRS7-DXD) (antibody, human IgG1, kappa, V domains shown)
VH: QVQLQQSGSELKKPGASVKVSCKASGYTFTNYGMNWVKQAPGQGLKWMGWINTYTGEPTYTDDFKGRFAFSLDTSVSTAYLQISSLKADDTAVYFCARGGFGSSYWYFDVWGQGSLVTVSS
VL: DIQLTQSPSSLSASVGDRVSITCKASQDVSIAVAWYQQKPGKAPKLLIYSASYRYTGVPDRFSGSGSGTDFTLTISSLQPEDFAVYYCQQHYITPLTFGAGTKVEIKR
modifications: deruxtecan (DXD) on cysteines of reduced interchain disulfides; label D4
B8: hRS7-CPD3-NC-D4 (antibody, human IgG1, kappa, V domains shown)
VH: QVQLQQSGSELKKPGASVKVSCKASGYTFTNYGMNWVKQAPGQGLKWMGWINTYTGEPTYTDDFKGRFAFSLDTSVSTAYLQISSLKADDTAVYFCARGGFGSSYWYFDVWGQGSLVTVSS
VL: DIQLTQSPSSLSASVGDRVSITCKASQDVSIAVAWYQQKPGKAPKLLIYSASYRYTGVPDRFSGSGSGTDFTLTISSLQPEDFAVYYCQQHYITPLTFGAGTKVEIKR
modifications: linker-drug CPD3 on cysteines of reduced interchain disulfides; label D4
B9: hRS7-CPD4-NC-D4 (antibody, human IgG1, kappa, V domains shown)
VH: QVQLQQSGSELKKPGASVKVSCKASGYTFTNYGMNWVKQAPGQGLKWMGWINTYTGEPTYTDDFKGRFAFSLDTSVSTAYLQISSLKADDTAVYFCARGGFGSSYWYFDVWGQGSLVTVSS
VL: DIQLTQSPSSLSASVGDRVSITCKASQDVSIAVAWYQQKPGKAPKLLIYSASYRYTGVPDRFSGSGSGTDFTLTISSLQPEDFAVYYCQQHYITPLTFGAGTKVEIKR
modifications: linker-drug CPD4 on cysteines of reduced interchain disulfides; label D4
B10: hRS7-CPD1-NC-D4 (antibody, human IgG1, kappa, V domains shown)
VH: QVQLQQSGSELKKPGASVKVSCKASGYTFTNYGMNWVKQAPGQGLKWMGWINTYTGEPTYTDDFKGRFAFSLDTSVSTAYLQISSLKADDTAVYFCARGGFGSSYWYFDVWGQGSLVTVSS
VL: DIQLTQSPSSLSASVGDRVSITCKASQDVSIAVAWYQQKPGKAPKLLIYSASYRYTGVPDRFSGSGSGTDFTLTISSLQPEDFAVYYCQQHYITPLTFGAGTKVEIKR
modifications: linker-drug CPD1 on cysteines of reduced interchain disulfides; label D4
B11: hRS7-CPD2-NC-D4 (antibody, human IgG1, kappa, V domains shown)
VH: QVQLQQSGSELKKPGASVKVSCKASGYTFTNYGMNWVKQAPGQGLKWMGWINTYTGEPTYTDDFKGRFAFSLDTSVSTAYLQISSLKADDTAVYFCARGGFGSSYWYFDVWGQGSLVTVSS
VL: DIQLTQSPSSLSASVGDRVSITCKASQDVSIAVAWYQQKPGKAPKLLIYSASYRYTGVPDRFSGSGSGTDFTLTISSLQPEDFAVYYCQQHYITPLTFGAGTKVEIKR
modifications: linker-drug CPD2 on cysteines of reduced interchain disulfides; label D4
B12: hRS7-CPD6-NC-D4 (antibody, human IgG1, kappa, V domains shown)
VH: QVQLQQSGSELKKPGASVKVSCKASGYTFTNYGMNWVKQAPGQGLKWMGWINTYTGEPTYTDDFKGRFAFSLDTSVSTAYLQISSLKADDTAVYFCARGGFGSSYWYFDVWGQGSLVTVSS
VL: DIQLTQSPSSLSASVGDRVSITCKASQDVSIAVAWYQQKPGKAPKLLIYSASYRYTGVPDRFSGSGSGTDFTLTISSLQPEDFAVYYCQQHYITPLTFGAGTKVEIKR
modifications: linker-drug CPD6 on cysteines of reduced interchain disulfides; label D4
B13: hRS7-CPD5-NC-D4 (antibody, human IgG1, kappa, V domains shown)
VH: QVQLQQSGSELKKPGASVKVSCKASGYTFTNYGMNWVKQAPGQGLKWMGWINTYTGEPTYTDDFKGRFAFSLDTSVSTAYLQISSLKADDTAVYFCARGGFGSSYWYFDVWGQGSLVTVSS
VL: DIQLTQSPSSLSASVGDRVSITCKASQDVSIAVAWYQQKPGKAPKLLIYSASYRYTGVPDRFSGSGSGTDFTLTISSLQPEDFAVYYCQQHYITPLTFGAGTKVEIKR
modifications: linker-drug CPD5 on cysteines of reduced interchain disulfides; label D4
B14: hRS7-C6-D4 (antibody, human IgG1, kappa, V domains shown)
VH: QVQLQQSGSELKKPGASVKVSCKASGYTFTNYGMNWVKQAPGQGLKWMGWINTYTGEPTYTDDFKGRFAFSLDTSVSTAYLQISSLKADDTAVYFCARGGFGSSYWYFDVWGQGSLVTVSS
VL: DIQLTQSPSSLSASVGDRVSITCKASQDVSIAVAWYQQKPGKAPKLLIYSASYRYTGVPDRFSGSGSGTDFTLTISSLQPEDFAVYYCQQHYITPLTFGAGTKVEIKR
modifications: linker-drug comp6 on cysteines of reduced interchain disulfides; DAR 3.49
B15: hRS7-C7-D4 (antibody, human IgG1, kappa, V domains shown)
VH: QVQLQQSGSELKKPGASVKVSCKASGYTFTNYGMNWVKQAPGQGLKWMGWINTYTGEPTYTDDFKGRFAFSLDTSVSTAYLQISSLKADDTAVYFCARGGFGSSYWYFDVWGQGSLVTVSS
VL: DIQLTQSPSSLSASVGDRVSITCKASQDVSIAVAWYQQKPGKAPKLLIYSASYRYTGVPDRFSGSGSGTDFTLTISSLQPEDFAVYYCQQHYITPLTFGAGTKVEIKR
modifications: linker-drug comp7 on cysteines of reduced interchain disulfides; DAR 3.56
B16: hRS7-C9-D4 (antibody, human IgG1, kappa, V domains shown)
VH: QVQLQQSGSELKKPGASVKVSCKASGYTFTNYGMNWVKQAPGQGLKWMGWINTYTGEPTYTDDFKGRFAFSLDTSVSTAYLQISSLKADDTAVYFCARGGFGSSYWYFDVWGQGSLVTVSS
VL: DIQLTQSPSSLSASVGDRVSITCKASQDVSIAVAWYQQKPGKAPKLLIYSASYRYTGVPDRFSGSGSGTDFTLTISSLQPEDFAVYYCQQHYITPLTFGAGTKVEIKR
modifications: linker-drug comp9 on cysteines of reduced interchain disulfides; DAR 3.54
B17: hRS7-C8-D4 (antibody, human IgG1, kappa, V domains shown)
VH: QVQLQQSGSELKKPGASVKVSCKASGYTFTNYGMNWVKQAPGQGLKWMGWINTYTGEPTYTDDFKGRFAFSLDTSVSTAYLQISSLKADDTAVYFCARGGFGSSYWYFDVWGQGSLVTVSS
VL: DIQLTQSPSSLSASVGDRVSITCKASQDVSIAVAWYQQKPGKAPKLLIYSASYRYTGVPDRFSGSGSGTDFTLTISSLQPEDFAVYYCQQHYITPLTFGAGTKVEIKR
modifications: linker-drug comp8 on cysteines of reduced interchain disulfides; DAR 3.52

The target in one test is T1, TROP2. Description: cell-based or functional assay.
On to B1, for which the “EC50(nM), inhibition of BxPC-3 cell proliferation” value (from here on “EC50(nM), inhibition”) turned out to be 0.353 nM and the “Relative activity (%), inhibition of BxPC-3 cell proliferation” value (“Relative activity (%), inhibition” for short) stood at 50.7%.

For B2, the “EC50(nM), inhibition” value amounted to 0.259 nM and the “Relative activity (%), inhibition” value was determined as 100%.

With B3, the “EC50(nM), inhibition” value came out at 0.259 nM and the “Relative activity (%), inhibition” value amounted to 60.4%.

Consider B4, for which the “EC50(nM), inhibition” value came out at 6.46 nM.

As to B5, the “EC50(nM), inhibition” value turned out to be 0.144 nM and the “Relative activity (%), inhibition” value amounted to 109%.

With B6, the “EC50(nM), inhibition” value is 0.101 nM and the “Relative activity (%), inhibition” value stood at 155%.

Regarding B7, the “EC50(nM), inhibition” value was found to be 0.156 nM and the “Relative activity (%), inhibition” value is 100%.

The next test deals with T1, TROP2. Description: cell-based or functional assay. This is another data set of the same source.
Regarding B8, the “EC50(nM), inhibition” value was 0.309 nM and the “Relative activity (%), inhibition” value was found to be 156%.

In the case of B9, the “EC50(nM), inhibition” value was 0.424 nM and the “Relative activity (%), inhibition” value was 89.6%.

B10: the “EC50(nM), inhibition” value was 0.468 nM and the “Relative activity (%), inhibition” value was 103%.

B11: the “EC50(nM), inhibition” value came out at 0.327 nM and the “Relative activity (%), inhibition” value was 147%.

For the molecule B12, the “EC50(nM), inhibition” value was found to be 0.341 nM and the “Relative activity (%), inhibition” value is 111%.

Consider B13, for which the “EC50(nM), inhibition” value worked out at 0.478 nM and the “Relative activity (%), inhibition” value was 79.6%.

For the molecule B7, the “EC50(nM), inhibition” value amounted to 0.38 nM and the “Relative activity (%), inhibition” value stood at 100%.

The target in the next test is T1, TROP2. Description: cell-based or functional assay. This is another data set of the same source.
As to B14, the “EC50(nM), inhibition” value is 0.393 nM and the “Relative activity (%), inhibition” value stood at 80%.

B15: the “EC50(nM), inhibition” value was found to be 0.305 nM and the “Relative activity (%), inhibition” value turned out to be 103%.

As to B16, the “EC50(nM), inhibition” value is 0.377 nM and the “Relative activity (%), inhibition” value was 108%.

Take B17: the “EC50(nM), inhibition” value was 0.323 nM and the “Relative activity (%), inhibition” value is 97%.

With B7, the “Relative activity (%), inhibition” value was 100%.
